Results: the DeepSol protein solubility set

Assay: soluble on expression in E. coli; label from the status in PepcDB or PDB records

Sequence | soluble on expression in E. coli
MRIVAPVMPRHFDEAQAIDISKYEDVNLIEWRADFLPKDEIVAVAPAIFEKFAGKEIIFTLRTVQEGGNITLSSQEYVDIIKEINAIYNPDYIDFEYFTHKSVFQEMLDFPNLILSYHNFEETPENLMEAFSEMTKLAPRVVKIAVMPQSEQDVLDLMNYTRGFKTLNPEQEFATISMGKLGRLSRFAGDVIGSSWTYVSLDHVSGPGQVTLNDMKRIIEVLEMDISN | soluble
MRKEVEQLALMGAMPDETDEPTDVLIDKYADLLGKITKPITLDEAHILIKLFPPTALYGIEWTLLHLIESVYPETEFIKYKELINECNSVEFREMLVQRLNNSQQNKVTNK | not soluble
MRKIKLIAVVGPTAVGKTALGIELAKTFNGEIISGDSQQVYQKLDIGTAKASKEEQEQAYHHLIDVREVNENYSVYDFVKEAKVAIDTIISKGKIPIIVGGTGLYLQSLFEGYHLGGEVNQETLMAYREKLESLSDEDLFEKLTEQSIIIPQVNRRRAIRALELAKFGNDLQNSESPYDVLLIGLNDDRQVLYDRINRRVDLMMDNGLLDEAKWLYDNYPSVQASKGIGYKELFPYFSKQIPLEEAVDKLKQNTRRFAKRQLTWFRNRMNVEFIMVGEENYQQKIKRKVSDFLSSKLEHHHHHH | soluble
MRKSLEIGKCVVLEVLTPRGTNLGRFMEFTEEAWKTGIDAFTVTDMPMGRVRMAPWAASHLLVESGKDVLMHFTRNTRNMIRIQSDLLGCHALGVKNLLLLSGDNPSHGDYPETTSVNDIDILDLIRLTKLMNEGTDLAGNKIYGKTDFFVGGALNPFSDKDIKRAKQKIEAGVDFLVTQPLFNSEVAKKIKEELNTKILASIVFFENAKQMSYFSSVPGIEIPDEIVNSTEKGDDYLKEKSFESVLRFVEETKGVLDGFYIVAIVKDLEKIRKVVEIAKS | not soluble
MRKTWLSLLLLFILALSACGNAADDQKNNSASPKEKKPETITYQSENGPVEVPADPKRVVVLSTFAGHVLALDVPIVGVDSWSKMSPLFQEKLKDAEVVTDEDIEKIMALKPDLIIGLSNTKKVDKLSKIAPTVTFTYGKVDYLTQFLEIGKLLNKEKEAKAWIDDFKQRAQQAGEEIRAKIGENATVTVAENFDKQLYVFGNNWARGTEILYQEMKLKMPKAVEEQALKPGYYAVSLEALPQFVGDYLILSKNGDGDTSFMETNTFKNIPAVKNGHMFVADAKAFYFNDPITLDYQLDFFKKHFLGQ | not soluble
MRKVETTKAPQAIGPYSQGIIVNNMFYSSGQIPLTPEGELVKGDIQAQTHQVFQNLKAVLEAAGASLDTVVKTTVFLKNMDDFAAMNEVYSQYFPNHKPARSCVEVARLPKDVLVEIEVVALVP | soluble
MRLASMGEEDSTPGRRSKAYSRQGADVRPMKGGHGINLVGTLMAATERGANIVEGVVDFRPTDLRGSLRRGREANLIVFVVDTSGSMAARSRVRAVTGTITSMLNDAYQRRDKVAVIAVNGNKPTLVLNPTNSVEQAQQKLKDMPMGGRTPLAEGLLMAKDLMARELRKEPGRRAILMVMTDGQDTSDAGEAGIATAAETVVKSRLSGNVVIDCEGRLKVRKERAGVLAEMLGGVCVRLRDLNSEHIKMVINA | not soluble
MRLCDRDIEAWLDEGRLSINPRPPVERINGATVDVRLGNKFRTFRGHTAAFIDLSGPKDEVSAALDRVMSDEIVLDEGEAFYLHPGELALAVTLESVTLPADLVGWLDGRSSLARLGLMVHVTAHRIDPGWSGCIVLAFYNSGKLPLALRPGMLIGALSFEPLSGPAVRPYNRREDAKYRNQQGAVASRIDKD | soluble
MRLCGLLIFLSYIVYVDNAVTANFISDPRSMFPKMVRTKNAFHFLQYFMGTFRRMFRNKTEMIEHFNYYDDQVKGTDCHIQEELDFARFKSYFDRYTRTHYNPEIRIIFAIMTKDSSHMTVEFHVTSQSWFGFEDHFHMIIRAVNDENVGWGVRYLSMAFNC | not soluble
MRLDHLRLQNFRCYEDAHFDFQPGFNLVVGVNGSGKTSLLLGVAECLIPYGNAMGQGQEILSKEDVRFVIDRHEGRSRFERKFPVFIRADGDIFDLPNWRAVRLLEPWEGGVDPSSLSHLSAVLARNNAGEQIDFPVLAFYRANRRWSSARISAEFAAQQRTSRFDGYANWFDAVADLRDFESWLIARTLERLQDRLDSTPTVEREDELEWVNRAIRLAIPDAHDLRYDLRLQSLLVDMGEGNAVPFHELSDGQRSLIALIADIARRMCVLNPHIGKDVLANTGGIVIIDELDIHLHPAWQRNIAPTLKKAFPKVQFIATSHSPQVIGSLQPGEVILLKNGDSSHPRATYGLDSSTILEEVMGVPQREPEIEVLLDELFSTLENNELEKARLQLDALKKKAPDLPEFAGAEALLKRKELIGRLEHHHHHH | soluble
MRLFHELLGPLELPDRFSRIVSLAPNLTDALFALGLGERLVGRSAFCHRPAPVLALPVVASYTKTRLELLRSLKPDLVLLSTGVQREQALRLKEEGFPVYAVPLPTSPYGILENLSTLGHLLDLEERAVALAHELSGRYAALRGRFDLRVYFEMDLGGPITVGRGSYIAQALLHMGLKPIFLDVPQAYFAPDLEEVRRRAPDLFLYEPKPWGKNPLEKARALARERGWDFPVAATDGDELAHYGPMFFGFLEKLARRVEETLGQA | soluble
MRLFKRYTPSMIAKHISRLFKGRIYIYGVGRFEFDNGKLILPEKAEQRHFRAVKEINQEIMKLRCAYALEHHHHHH | not soluble
MRLISKPVLCNYYVTYRCNATCGFCDIWEKPSPYVTPEAVEQNMRDLKKLGVKVIDFTGGEPLLHREMDTLLRIAKKYGMITTLTTNALLYPKWAERLKGLIDMLHFSLDSPDKAEHDTLRGVACFDFVLESIEKAKALGERPDIIFTVFNHNIHLIKRMYEEICLPNNLILILNPSFEYNQVEVGTGLQKKELDILSYWAKQKNIYINEAFIQLRLDGGNHTADPVCKAASSTLVISPENKLVLPCYHLGTDSFQIENNLFDLYHSKEVRAIIAQEGKLDACEGCTINCYMQPSFAVEINKYWFKAMPSTLKYSREKGTWKQLFR | not soluble
MRLKLTHINHISHKIANDFIHSKLLELKAPRELLCELIEGILEKSVKKENAIDEQARELLEENTDEIEFMRMDERQLFWMIKRQIAQKEGFHLFWEERCNDLSHQILNKILDEDLIMFSVSENLIRNLIYKSIDTYSKAYESIENEVHEKIKHYKRKLPVGSDEYELVFERLYEEELRRKGFL | not soluble
MRLLILGGTGDAAELSAKVATIPGIEAIASLAGRTREPSLPSGNVRVGGFGGAAGLADYLRQMQVDVLIDATHPFAAQISENAALAADEVEIPRLMLIRPPWVKVAGDRWIEVDTTSAAAAILKNQAKRVFLTVGRQELSAFAHLHDIWFLMRMIDPPAADALVPPGVILCDRGPFTLPQERDILIQHNIDTLVSKNSGGDATYAKIIAARELGVQVVMVNRPVVPACEQVTDADAAVAWLLEK | not soluble
MRLLLFRQRNFRNLALEAYRPPPGLSALVGANAQGKTSLLLGIHLALGGEVPLGLADLVRFGEEEAWLHAEVETELGAYRLEHRLGPGGREVLLNGKRVSLRTLWELPGSVLVSPLDLEAVLGPKEERRAYLDRLIARFSRRYAALLSAYEKALRQRNALLKAGGEGLSAWDRELARYGDEIVALRRRFLRRFAPILREVHAALAAKEAGLRLEETAGEGVLRALEASRAEERERGQTLVGPHRDDLVFLLEGRPAHRFASRGEAKTLALALRLAEHRLLGEHHGEPPLLLVDEWGEELDEARRRAVLAYAQALPQAILAGLEAPPGVPVCSVVRGVVLCPGA | soluble
MRLLTCDCTFMGQKHSGSVSVEKKNQENDGPPTYEIVFGWSQSFENLMKHRAGQKYFAEFLKGEYSDENILFWQACEELKREKNAEKIEEKARIIYEDFISILSPKEVSLDSRVREIVNTNMGRPSASTFDEAQNQIYTLMQRDSYPRFLASNIYKTVMGTFGIKEEAV | not soluble
MRLSFRTLQRRNALGDAPRHRSAQRRAVKTGRRASRTACDAERRTIVERAWHDSLEHHHHHH | not soluble
MRLVIARCSVDYIGRLEAHLPMADRLLMVKADGSVSIHADDRAYKPLNWMTPPCTLTETTHEESETGESIPLWIVENKKGEQLRITIEALHSDMYYDLGEDPGLQKDGVEAHLQELLAEHIETLGDGYSLVRREYPTPIGPVDILCRDDKGGSVAVEIKRRGGIDGVEQLSRYLELLNRDDLLAPVAGVFAAQHIKPQARTLAEDRGIRCVTLDYDSLRGIESTELRLF | not soluble
MRNITNFLKTFLLWELLKGLKVTGKHFFTRKVTVQYPDEKTPISNRFRGLHALRRYENGEERCIACKLCEVVCPALAITINSTEREDGTRRTSSYEMDLFKCIFCGYCEESCPVDSIVETNILEYHFEERGENIMTKAKLLAIGDKYEAQIAADRLQDKDFR | not soluble
MRNTDRKRAQGVSRLDRRDSRMRRVGTYGGRKLIEYDQERWNILAEKRERAKEVMESLLSFGIESVVYGSVARGDVNEKSDVDIFIPEVIPSYKVEVALDGFEVLEKRIVQATPNYAIKGEFVLSDNTTVSFPLVRMREREMDFYRFGGCVDYRGLMEKRRVPGVDKRLVLIIPTGKGHREIPLTDIHPSSVARMLGVSIDIVTERIRVLTRRREVGRTGIFLCETIPSTDCFEQALKEIASRNPAVRRRLD | not soluble
MRNTIEIEDPNHRPFTISSNYAYYIGYLDLRPDGMGYHKRGEMNGLWYPPLRVLKNIYVSDGKTVFKPAHAEIGYSEARFEFYGTTLQISFQDDNDFEIAVKNASNDVRKLIVELHPETVWYTVNDTRIKVNRRSAIIYSHMFPETRLRIAASSEFSIENGRLSLLADGKSSLRISSACLHSHRPPIRVNRYRDIDRFSLLRGGGQIGENFRTAKDNLIRLSLINQETGYGLTAGHPDFPWYFGIDTLLSFNGILDAGLFELAFGSLNILARYSKSGKIPHEILTSGKVYNDGDLEETALFPYAVFKYAEWAGYTEEMRHLATIASESFNYLFAHGFQGRGIMEDPKAGEGVDIDTISFTIMSLMELQKVMDMDQEAFGGIADAVKPTEAIDALRKTVQSFWMSERRTFANRIVDGVPVDLGFWTSIIPFYTGIAGIDQYRKFVSDGGGLSRISSSSGIVVDASGNSMPVNTGMFVLGSIRYGDAENAARYFKMLDRSLGLFSPGAYPEISNNPQGCYLQAWSAAIYIESIVEGFFGIHSEGGRLISKPFNSSLMPGGATLKNVRFRNKYYDFIL | not soluble
MRPLILSIFALFLAGCTHSQQSMVDTFRASLFDNQDITVADQQIQALPYSTMYLRLNEGQRIFVVLGYIEQEQSKWLSQDNAMLVTHNGRLLKTVKLNNNLLEVTNSGQDPLRNALAIKDGSRWTRDILWSEDNHFRSATLSSTFSFAGLETLHIAGRDVLCNVWQEEVTSTLPEKQWQNTFWVDSATGQVRQSRQMLGAGVIPVEMTFLKPAP | not soluble
